From patent US20160272683A1 (Novo Nordisk, published 2016)
One block for each binder: values may come before it. Numbered stars: 1 amine (or outer) side, 2 acyl side, 3 side chain; on linkers, the order of the positions; unused ones are H or OH. * marks the point of attachment. C20 diacid = O=C(O)CCCCCCCCCCCCCCCCCCC(=O)*; C16 diacid = O=C(O)CCCCCCCCCCCCCCC(=O)*; γGlu = O=C(O)[C@H](CCC(=O)[*:2])N[*:1]; AEEA = NCCOCCOCC(=O)O

Experiments:
[1] = biological target: T1, human amylin receptor (amylin 3(a) receptor: human calcitonin receptor with RAMP-3) (human, UniProt P30988 25-474; O60896 24-148, limits assumed); test: SPA competition vs 125I-rat amylin, membranes with human CTR + RAMP-3 (Assay V)
T1 construct: whole, on cells; Assay V: membranes of the Amylin 3(a)/CRE-luc BHK cells on SPA beads; also called hAmylin-R
T1 sequence (looked up) 1: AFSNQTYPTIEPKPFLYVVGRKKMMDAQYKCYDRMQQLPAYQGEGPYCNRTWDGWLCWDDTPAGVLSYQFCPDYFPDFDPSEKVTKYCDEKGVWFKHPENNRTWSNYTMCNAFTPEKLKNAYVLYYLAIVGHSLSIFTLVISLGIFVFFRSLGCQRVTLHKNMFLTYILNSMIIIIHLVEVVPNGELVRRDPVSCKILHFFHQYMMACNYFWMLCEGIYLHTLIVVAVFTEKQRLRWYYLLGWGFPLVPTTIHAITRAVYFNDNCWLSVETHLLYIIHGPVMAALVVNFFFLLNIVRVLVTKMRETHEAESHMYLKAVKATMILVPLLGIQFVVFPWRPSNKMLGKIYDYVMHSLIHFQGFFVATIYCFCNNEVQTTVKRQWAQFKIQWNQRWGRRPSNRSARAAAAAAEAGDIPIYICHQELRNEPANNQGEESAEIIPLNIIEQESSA
T1 sequence (looked up) 2: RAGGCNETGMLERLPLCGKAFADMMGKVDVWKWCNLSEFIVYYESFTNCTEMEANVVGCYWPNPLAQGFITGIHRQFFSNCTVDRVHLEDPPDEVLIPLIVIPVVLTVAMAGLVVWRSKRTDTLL

[2] = biological target: T2, human calcitonin receptor (human, UniProt P30988 25-474); test: SPA competition vs 125I-calcitonin, membranes with human CTR (Assay VII)
T2 construct: whole, on cells; Assay VII: membranes on SPA beads; also called hCT-R; hCTR
T2 sequence (looked up): T1 sequence (looked up) 1
Summary of the method: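 SPA competition on membranes from BHK tk'ts 13 cells stably expressing human calcitonin receptor plus CRE-luciferase reporter; membranes 35 ng/μL final with 0.05 mg/well beads.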

B3: [N-terminal(C16 diacid-gGlu), des1, 30S, 31G]mimylin (peptide)
peptide: {C16 diacid-γGlu}-ASELSTAALGRLSAELHELATLPRTETGSGSP-NH2
notes: mimylin derivative; des1 = residue 1 deleted; also called Ex. #47; 47
IC50 [1]: 0.037 nM | IC50 [2]: 0.024 nM

B5: [N-terminal(C20 diacid-gGlu), des1, 4G, 15Q, 21Q, 23Y, 30S, 31Q, 32T, 33Y]mimylin (peptide)
peptide: {C20 diacid-γGlu}-ASGLSTAALGRLSQELHELQTYPRTETGSQTY-NH2
SMILES: CC(C)C[C@H](NC(=O)CNC(=O)[C@H](CO)NC(=O)[C@H](C)NC(=O)CC[C@H](NC(=O)CCCCCCCCCCCCCCCCCCC(=O)O)C(=O)O)C(=O)N[C@@H](CO)C(=O)N[C@H](C(=O)N[C@@H](C)C(=O)N[C@@H](C)C(=O)N[C@@H](CC(C)C)C(=O)NCC(=O)N[C@@H](CCCNC(=N)N)C(=O)N[C@@H](CC(C)C)C(=O)N[C@@H](CO)C(=O)N[C@@H](CCC(N)=O)C(=O)N[C@@H](CCC(=O)O)C(=O)N[C@@H](CC(C)C)C(=O)N[C@@H](Cc1c[nH]cn1)C(=O)N[C@@H](CCC(=O)O)C(=O)N[C@@H](CC(C)C)C(=O)N[C@@H](CCC(N)=O)C(=O)N[C@H](C(=O)N[C@@H](Cc1ccc(O)cc1)C(=O)N1CCC[C@H]1C(=O)N[C@@H](CCCNC(=N)N)C(=O)N[C@H](C(=O)N[C@@H](CCC(=O)O)C(=O)N[C@H](C(=O)NCC(=O)N[C@@H](CO)C(=O)N[C@@H](CCC(N)=O)C(=O)N[C@H](C(=O)N[C@@H](Cc1ccc(O)cc1)C(N)=O)[C@@H](C)O)[C@@H](C)O)[C@@H](C)O)[C@@H](C)O)[C@@H](C)O
notes: mimylin derivative; des1 = residue 1 deleted
IC50 [1]: 0.131 nM | IC50 [2]: 0.051 nM

Continued by falling IC50 [1], values first:

IC50 [1]: 0.389 nM | IC50 [2]: 0.112 nM
B2: [N-terminal(C20 diacid-gGlu-5xOEG), des1, 30S, 31G]mimylin (peptide)
peptide: {C20 diacid-γGlu-AEEA-AEEA-AEEA-AEEA-AEEA}-ASELSTAALGRLSAELHELATLPRTETGSGSP-NH2
notes: mimylin derivative; des1 = residue 1 deleted; also called Ex. #45; 45

IC50 [1]: 0.166 nM | IC50 [2]: 0.15 nM
B6: [N-terminal(C20 diacid-gGlu), des1, 4G, 15Q, 21Q, 23Y, 25H, 30S, 31G, 32T, 33Y]mimylin (peptide)
peptide: {C20 diacid-γGlu}-ASGLSTAALGRLSQELHELQTYPHTETGSGTY-NH2
SMILES: CC(C)C[C@H](NC(=O)CNC(=O)[C@H](CO)NC(=O)[C@H](C)NC(=O)CC[C@H](NC(=O)CCCCCCCCCCCCCCCCCCC(=O)O)C(=O)O)C(=O)N[C@@H](CO)C(=O)N[C@H](C(=O)N[C@@H](C)C(=O)N[C@@H](C)C(=O)N[C@@H](CC(C)C)C(=O)NCC(=O)N[C@@H](CCCNC(=N)N)C(=O)N[C@@H](CC(C)C)C(=O)N[C@@H](CO)C(=O)N[C@@H](CCC(N)=O)C(=O)N[C@@H](CCC(=O)O)C(=O)N[C@@H](CC(C)C)C(=O)N[C@@H](Cc1c[nH]cn1)C(=O)N[C@@H](CCC(=O)O)C(=O)N[C@@H](CC(C)C)C(=O)N[C@@H](CCC(N)=O)C(=O)N[C@H](C(=O)N[C@@H](Cc1ccc(O)cc1)C(=O)N1CCC[C@H]1C(=O)N[C@@H](Cc1c[nH]cn1)C(=O)N[C@H](C(=O)N[C@@H](CCC(=O)O)C(=O)N[C@H](C(=O)NCC(=O)N[C@@H](CO)C(=O)NCC(=O)N[C@H](C(=O)N[C@@H](Cc1ccc(O)cc1)C(N)=O)[C@@H](C)O)[C@@H](C)O)[C@@H](C)O)[C@@H](C)O)[C@@H](C)O
notes: as for B5

IC50 [1]: 0.164 nM | IC50 [2]: 0.05 nM
B1: [N-terminal(C20 diacid-gGlu-3xOEG), des1, 30S, 31G]mimylin (peptide)
peptide: {C20 diacid-γGlu-AEEA-AEEA-AEEA}-ASELSTAALGRLSAELHELATLPRTETGSGSP-NH2
notes: mimylin derivative; des1 = residue 1 deleted; also called Ex. #43; 43

IC50 [1]: 0.152 nM | IC50 [2]: 0.067 nM
B4: [N-terminal(C20 diacid-gGlu), des1, 4G, 9V, 15Q, 21Q, 23Y, 30S, 31Q, 32T, 33Y]mimylin (peptide)
peptide: {C20 diacid-γGlu}-ASGLSTAVLGRLSQELHELQTYPRTETGSQTY-NH2
SMILES: CC(C)C[C@H](NC(=O)CNC(=O)[C@H](CO)NC(=O)[C@H](C)NC(=O)CC[C@H](NC(=O)CCCCCCCCCCCCCCCCCCC(=O)O)C(=O)O)C(=O)N[C@@H](CO)C(=O)N[C@H](C(=O)N[C@@H](C)C(=O)N[C@H](C(=O)N[C@@H](CC(C)C)C(=O)NCC(=O)N[C@@H](CCCNC(=N)N)C(=O)N[C@@H](CC(C)C)C(=O)N[C@@H](CO)C(=O)N[C@@H](CCC(N)=O)C(=O)N[C@@H](CCC(=O)O)C(=O)N[C@@H](CC(C)C)C(=O)N[C@@H](Cc1c[nH]cn1)C(=O)N[C@@H](CCC(=O)O)C(=O)N[C@@H](CC(C)C)C(=O)N[C@@H](CCC(N)=O)C(=O)N[C@H](C(=O)N[C@@H](Cc1ccc(O)cc1)C(=O)N1CCC[C@H]1C(=O)N[C@@H](CCCNC(=N)N)C(=O)N[C@H](C(=O)N[C@@H](CCC(=O)O)C(=O)N[C@H](C(=O)NCC(=O)N[C@@H](CO)C(=O)N[C@@H](CCC(N)=O)C(=O)N[C@H](C(=O)N[C@@H](Cc1ccc(O)cc1)C(N)=O)[C@@H](C)O)[C@@H](C)O)[C@@H](C)O)[C@@H](C)O)C(C)C)[C@@H](C)O
notes: as for B5
